Laboratory results reported in PMC8886820.
Where two headings read alike, the source gives them in different places. Blank lines part the entries; values can stand above or below the substance they belong to.

Tests used:
[1] = target: Taxol-stabilized microtubules (UniProt P02550); assay: TIRF microscopy of EGFP-tagged protein on surface-held microtubules
[2] = target: MBP-Spc105(10xMEED)-TST (D. melanogaster); assay: pull-down
[3] = target: phospho-10xMEED (MBP-Spc105(10xMEED)-TST phosphorylated by activated Sli15(INBOX)-Ipl1) (D. melanogaster); assay: pull-down
[4] = target: Taxol-stabilized microtubules (UniProt P02550); assay: TIRF microscopy of EGFP-tagged protein on surface-held microtubules; remark: listed apart in the source

Taxol-stabilized microtubules, sequence (P02550 whole entry, chain 1 of 2): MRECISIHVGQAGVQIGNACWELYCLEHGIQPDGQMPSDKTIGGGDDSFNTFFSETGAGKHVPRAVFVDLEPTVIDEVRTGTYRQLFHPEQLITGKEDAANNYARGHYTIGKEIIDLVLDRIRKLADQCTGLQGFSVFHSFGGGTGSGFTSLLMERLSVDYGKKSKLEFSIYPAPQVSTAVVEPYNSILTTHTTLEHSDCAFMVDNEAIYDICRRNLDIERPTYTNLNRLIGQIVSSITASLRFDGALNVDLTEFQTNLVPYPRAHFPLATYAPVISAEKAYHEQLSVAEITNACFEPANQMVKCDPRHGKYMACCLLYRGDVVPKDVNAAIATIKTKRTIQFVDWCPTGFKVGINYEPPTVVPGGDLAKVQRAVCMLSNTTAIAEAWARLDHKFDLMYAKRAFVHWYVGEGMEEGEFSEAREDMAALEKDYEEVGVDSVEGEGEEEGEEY
Taxol-stabilized microtubules, sequence (P02554 whole entry, chain 2 of 2, further chain): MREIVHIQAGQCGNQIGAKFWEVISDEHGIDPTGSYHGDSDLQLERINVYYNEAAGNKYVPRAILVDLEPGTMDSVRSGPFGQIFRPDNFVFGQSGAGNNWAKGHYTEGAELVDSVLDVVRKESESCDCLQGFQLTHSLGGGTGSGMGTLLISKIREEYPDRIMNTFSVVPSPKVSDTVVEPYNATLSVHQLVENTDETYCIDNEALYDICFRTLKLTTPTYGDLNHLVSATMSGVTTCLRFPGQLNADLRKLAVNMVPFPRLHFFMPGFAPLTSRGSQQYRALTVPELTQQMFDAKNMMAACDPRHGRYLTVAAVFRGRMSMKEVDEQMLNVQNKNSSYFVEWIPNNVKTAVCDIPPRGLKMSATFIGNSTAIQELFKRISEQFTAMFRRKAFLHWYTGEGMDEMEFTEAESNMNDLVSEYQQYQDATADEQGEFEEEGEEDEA

percent of the MT binding of unphosphorylated Spc105-B(1-400) in 150 mM KCl [1]: 22.1%
Substance: Spc105-B(1-400)-EGFP phosphorylated with Sli15(INBOX)-Ipl1 (domain or fragment)

fold Bub3 bound against the MBP-TST control [2]: 2 fold
fold Bub3 bound against the unphosphorylated MBP-TST control [3]: 30 fold
Substance: Bub3-EGFP (natural protein)

percent of the MT binding of Spc105-B(1-400) [1]: < 50%
Substance: Spc105-A(1-400)-EGFP (domain or fragment)

percent of the MT binding of Spc105-B(1-400) in 150 mM KCl [4]: 12.5%
percent of the MT binding of Spc105-B(1-400) in 150 mM KCl [1]: 14.6%
percent reduction of MT binding against Spc105-B(1-400) without 1,6-HD [1]: 40%
Substance: Spc105-B(1-400)-EGFP (domain or fragment)
